{
  "source": "paper PMC12147903",
  "key": {"[1]": {"molecular_target": "E3 ubiquitin ligase zinc RING finger 3 (Znrf3) (mouse (endogenous in MIN6)) (UniProt Q5SSZ7)", "sequence (Q5SSZ7 53-913)": "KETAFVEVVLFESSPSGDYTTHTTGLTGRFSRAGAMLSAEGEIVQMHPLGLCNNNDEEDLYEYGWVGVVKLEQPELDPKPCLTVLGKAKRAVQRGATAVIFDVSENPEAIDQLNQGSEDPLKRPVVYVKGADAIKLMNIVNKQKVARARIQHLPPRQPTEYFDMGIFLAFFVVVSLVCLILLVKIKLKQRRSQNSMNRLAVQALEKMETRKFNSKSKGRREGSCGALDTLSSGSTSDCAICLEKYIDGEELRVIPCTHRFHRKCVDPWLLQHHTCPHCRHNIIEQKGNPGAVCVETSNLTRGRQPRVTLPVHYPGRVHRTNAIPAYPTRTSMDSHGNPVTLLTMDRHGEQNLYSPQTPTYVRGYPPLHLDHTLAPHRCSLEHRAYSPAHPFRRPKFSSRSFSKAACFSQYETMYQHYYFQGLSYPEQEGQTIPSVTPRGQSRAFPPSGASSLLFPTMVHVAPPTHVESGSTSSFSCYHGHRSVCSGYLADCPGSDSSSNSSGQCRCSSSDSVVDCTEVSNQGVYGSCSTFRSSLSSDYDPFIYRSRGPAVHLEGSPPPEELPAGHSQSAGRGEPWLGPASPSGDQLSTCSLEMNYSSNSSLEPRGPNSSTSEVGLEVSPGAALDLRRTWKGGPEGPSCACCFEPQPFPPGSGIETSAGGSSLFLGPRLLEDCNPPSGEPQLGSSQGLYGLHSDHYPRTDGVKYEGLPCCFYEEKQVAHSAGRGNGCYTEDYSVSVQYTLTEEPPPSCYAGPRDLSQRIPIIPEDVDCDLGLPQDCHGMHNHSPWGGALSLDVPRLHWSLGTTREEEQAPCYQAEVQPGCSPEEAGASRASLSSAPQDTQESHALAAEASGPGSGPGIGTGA"}, "[2]": {"molecular_target": "T1, leucine-rich repeat-containing G-protein coupled receptor 4 (Lgr4) (mouse (endogenous in MIN6)) (UniProt A2ARI4)", "T1 sequence": "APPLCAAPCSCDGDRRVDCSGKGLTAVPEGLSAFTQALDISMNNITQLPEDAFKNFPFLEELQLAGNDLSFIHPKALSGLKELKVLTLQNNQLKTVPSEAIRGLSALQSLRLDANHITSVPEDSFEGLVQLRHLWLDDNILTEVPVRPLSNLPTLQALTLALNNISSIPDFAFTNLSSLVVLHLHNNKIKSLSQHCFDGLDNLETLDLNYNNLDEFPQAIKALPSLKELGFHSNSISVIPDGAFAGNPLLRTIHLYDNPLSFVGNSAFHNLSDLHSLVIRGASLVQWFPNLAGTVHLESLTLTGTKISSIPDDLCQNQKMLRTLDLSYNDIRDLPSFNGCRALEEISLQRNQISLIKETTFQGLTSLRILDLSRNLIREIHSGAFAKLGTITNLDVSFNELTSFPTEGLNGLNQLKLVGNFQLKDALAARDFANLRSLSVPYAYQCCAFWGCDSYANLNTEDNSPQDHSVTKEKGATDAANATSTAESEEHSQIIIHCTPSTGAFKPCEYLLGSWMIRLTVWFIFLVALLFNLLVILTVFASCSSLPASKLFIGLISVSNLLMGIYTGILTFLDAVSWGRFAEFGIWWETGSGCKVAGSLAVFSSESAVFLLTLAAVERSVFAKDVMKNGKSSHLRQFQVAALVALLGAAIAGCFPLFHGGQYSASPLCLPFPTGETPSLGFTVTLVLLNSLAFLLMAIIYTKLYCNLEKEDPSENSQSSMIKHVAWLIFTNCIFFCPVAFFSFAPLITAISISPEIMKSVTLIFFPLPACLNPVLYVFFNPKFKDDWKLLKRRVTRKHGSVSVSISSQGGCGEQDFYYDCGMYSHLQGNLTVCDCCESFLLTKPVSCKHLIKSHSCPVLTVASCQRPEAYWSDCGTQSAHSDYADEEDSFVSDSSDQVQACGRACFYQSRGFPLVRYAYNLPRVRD"}},
  "data": [
    {"substance": "human RSPO1 (from UniProt Q2MKA7 21-263) (ligand)", "values": [
      {"measurement": "MIN6 cell number after 24 h of incubation with increasing doses of human RSPO1, against controls", "setting": "[1]", "result": 2.08, "unit": "fold"},
      {"measurement": "MIN6 cell number after 24 h of incubation with increasing doses of human RSPO1, against controls", "setting": "[2]", "result": 2.08, "unit": "fold"}
    ]}
  ]
}
